Test results as given in article doi:10.1101/2024.05.31.596772, “CAMSAP3 Forms Dimers via its α-helix Domain that Directly Stabilize Non-centrosomal Microtubule Minus Ends” (bioRxiv, 2024).

Target: the molecule itself
Assay: SEC-MALS; static light detection of the purified GFP-tagged protein; dimer from the mass of the primary peak

Row | Protein | stoichiometry N
1 | GFP-CAMSAP3 (natural protein, UniProt Q80VC9 1-1252, looked up, CAMSAP3 (Nezha), full length; also called Nezha; CAMSAP3 full-length; source: Sf9 cells, purified) MVEAAPAGSGPLRRTFLVPEIKSLDQYDFSRAKAAASLAWVLRAAFGGAEHVPPELWEPFYTDQYAQEHVKPPVTRLLLSAELYCRAWRQALPQLEPSPSPSALLALLARRGTVPSLPEHPVREADLKHQPILMGAHLAVIDALMVAFSFEWTKTLPGPLALSSLEHKLLFWVDTTVRRLQEKTEQEAAQRASPAAPLDGASPAQPSIRYRKDRAIARRAPCFPNVTTLQDLASGAALAATIHCYCPQLLRLEEVCLKDPMSVADSLYNLQLVQDFCASHLPRGCPLSLEDLLYVPPPLKVNLVVLLAEMYMCFEVLKPDFVQAKDLPDGHAVSPRNTETVPSQNNSGSSSPVFNFRHPLLSPGGPQSPLRGSTGSLKSSPSMSHMEALGKAWNRQLSRPLSQAVSFSTPFGLDSDVDVVMGDPVLLRSVSSDSLGPPRPVSTSSRNSAQPAPESGDLPTIEEALQIIHSAEPRLLPDGAADGSFYLHSPEGLSKPPLSPYPPEGASKPLSDRLNKAPIYISHPENPSKSSPCSTGEILKPPPPSEGSPKAVASSPAANNSEVKMTSFAERKKQLVKAEAESGLGSPTSTPVAPEALSSEMSELGARLEEKRRAIEAQKRRIEAIFAKHRQRLGKSAFLQVQPREAAGEAEEEAELGSVPGGERPAGEGQGEPSLRHKSVTFSPDLGPVPPEGLGDYNRAVSKLSAALSSLQRDMQRLTDQQQRLLAPPEAPGPAPPPAAWVIPGPATGPKAASPSPARRAPAARRSPGPGPSPTPRSPKHARPAELKLAPLTRVLTPPHDVDSLPHLRKFSPSQVPVQTRSSILLSEGTPPEEPTTKPALIEIPLASLGEPAADEEGDGSPPGAEDSLEEEASSEGEPRSGLGFFYKDEDKPEDEMAQKRASLLERQQRRVEEARRRKQWQEAEKEQKREEAARLAQEAPGLAFTTPVVASAAPVATLAPTTRAMAPAEEEVGPRRGDFTRLEYERRAQLKLMDDLDKVLRPRASGTGGPGRGGRRATRPRSGCCDDSALARSPARGLLGSRLSKVYSQSTLSLSTVANEAPNNLGVKRPTSRAPSPSGLMSPSRLPGSRERDWENGSNASSPASVPEYTGPRLYKEPSAKSNKFIIHNALSHCCLAGKVNEPQKNRILEEIEKSKANHFLILFRDSSCQFRALYTLSGETEELSRLAGYGPRTVTPAMVEGIYKYNSDRKRFTQIPAKTMSMSVDAFTIQGHLWQSKKPTTPKKGGGTPK | 2
2 | GFP-CAMSAP3 944F (domain or fragment, UniProt Q80VC9 944-1252, looked up, source: Sf9 cells, purified) AFTTPVVASAAPVATLAPTTRAMAPAEEEVGPRRGDFTRLEYERRAQLKLMDDLDKVLRPRASGTGGPGRGGRRATRPRSGCCDDSALARSPARGLLGSRLSKVYSQSTLSLSTVANEAPNNLGVKRPTSRAPSPSGLMSPSRLPGSRERDWENGSNASSPASVPEYTGPRLYKEPSAKSNKFIIHNALSHCCLAGKVNEPQKNRILEEIEKSKANHFLILFRDSSCQFRALYTLSGETEELSRLAGYGPRTVTPAMVEGIYKYNSDRKRFTQIPAKTMSMSVDAFTIQGHLWQSKKPTTPKKGGGTPK | 2
